Measured values as given in patent US20190169311A1.

Legend:
[1] = biological target: TFECDHis (human) (UniProt P13726); test: SPR (BIAcore 3000), antibody immobilized, TFECDHis as analyte
[2] = biological target: TFECDHis (human) (UniProt P13726); test: cross-competition ELISA; competitor: coated 101
[3] = biological target: TFECDHis (human) (UniProt P13726); test: cross-competition ELISA; competitor: coated 44
[4] = biological target: TFECDHis (human) (UniProt P13726); test: cross-competition ELISA; competitor: coated 11
[5] = biological target: TFECDHis (human) (UniProt P13726); test: cross-competition ELISA; competitor: coated 111
[6] = biological target: TFECDHis (human) (UniProt P13726); test: ELISA, coated TFECDHis; mean of 3 experiments
[7] = biological target: TFECDHis (human) (UniProt P13726); test: cross-competition ELISA; competitor: coated 092-A09
[8] = biological target: TFECDHis (human) (UniProt P13726); test: cross-competition ELISA; competitor: coated 087-Lg6
[9] = biological target: TFECDHis (human) (UniProt P13726); test: cross-competition ELISA; competitor: coated 114

Kd [1]: 3.15 nM
competition value (unit not given) [2]: 23
competition value (unit not given) [3]: 143
competition value (unit not given) [4]: 20
competition value (unit not given) [5]: 175
EC50 [6]: 0.16 nM
competition value (unit not given) [7]: 21
competition value (unit not given) [8]: 929
competition value (unit not given) [9]: 19
Substance: HuMab-TF-011 (antibody)
